What all share (test): native gel or EMSA; NativePAGE 3-12% Bis-Tris gel with Coomassie G-250, immunoblot for 52K; purified MBP-52K fusion proteins with or without TEV protease cleavage for 1 h at room temperature
(A gel shift assay detects complexes by their altered migration in electrophoresis.)

For experiment [1], the target named is MBP-52K fusion protein, S28/75D (MBP tag not removed) (human adenovirus type C5 (Ad5)).
Experiment [2] has as its target MBP-52K fusion protein, S28/75A (MBP tag not removed) (human adenovirus type C5 (Ad5)).
Experiment [3] addresses recombinant 52K S28/75D released from MBP-52K by TEV protease (human adenovirus type C5 (Ad5)).
Experiment [4] addresses recombinant WT 52K released from MBP-52K by TEV protease (human adenovirus type C5 (Ad5)).
Experiment [5] deals with MBP-52K fusion protein, wild type (MBP tag not removed) (human adenovirus type C5 (Ad5)).
For experiment [6], the target named is recombinant 52K S28/75A released from MBP-52K by TEV protease (human adenovirus type C5 (Ad5)).

As for “MBP-52K fusion protein, S28/75D (MBP tag not removed) (natural protein)”, the stoichiometry N (as a rule, a count of units in the complex or per binding partner) in experiment [1] came to 2. “MBP-52K fusion protein, S28/75A (MBP tag not removed) (natural protein)”: in experiment [2], the stoichiometry N is 2.

Turning to “recombinant 52K S28/75D released from MBP-52K by TEV protease (natural protein)”, the stoichiometry N in experiment [3] stood at 2. In the case of “recombinant WT 52K released from MBP-52K by TEV protease (natural protein)”, the stoichiometry N in experiment [4] is 2.

Regarding “MBP-52K fusion protein, wild type (MBP tag not removed) (natural protein)”, the stoichiometry N in experiment [5] worked out at 2. Consider “recombinant 52K S28/75A released from MBP-52K by TEV protease (natural protein)”, for which the stoichiometry N in experiment [6] was found to be 2.

(Values after publication PMC10897327.)
